The subject of this data set is FgU2AF23-His;GST-FgRbp1 (Fusarium graminearum PH-1;Fusarium graminearum PH-1). Kind of data set: pull-down. As to conditions: scale: fold FgU2AF23-His bound vs FgU2AF23 alone.

Substance FgRPS20 exon1-intron1-exon2 RNA had a binding signal of 1.6.
